Data published in article PMC4899871.

Target: GST-HA-ATG16L1-231–607 produced in yeast (extended WDD construct that includes residue 300), Q676U5
Assay: peptide microarray
Details: chain shown with the change, probe purified from yeast, mean ± s.d., n=9 replicas, read off a plot

GST-HA-ATG16L1-231–607 produced in yeast (extended WDD construct that includes residue 300), Q676U5, sequence (Q676U5 231-607): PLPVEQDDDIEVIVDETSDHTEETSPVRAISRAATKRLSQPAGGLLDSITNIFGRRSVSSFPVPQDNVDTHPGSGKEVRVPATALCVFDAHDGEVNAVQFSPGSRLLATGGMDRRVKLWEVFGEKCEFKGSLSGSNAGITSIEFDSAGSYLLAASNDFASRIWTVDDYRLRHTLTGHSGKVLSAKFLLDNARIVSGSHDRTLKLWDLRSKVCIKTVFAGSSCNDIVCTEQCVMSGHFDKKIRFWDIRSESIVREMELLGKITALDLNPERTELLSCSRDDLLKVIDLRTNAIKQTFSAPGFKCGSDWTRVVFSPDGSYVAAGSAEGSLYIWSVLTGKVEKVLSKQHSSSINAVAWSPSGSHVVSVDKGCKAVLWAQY

In the case of TAVEQAVPSAKLSIAGDAE, the percent of parent (parent: est. 100, scale: % of WT peptide) is reported as 12 and the response (parent: est. 1100) is reported as 200 a.u. (OD635).
